Experimental findings from patent publication US20180273587A1 (AILERON THERAPEUTICS, published 2018) are described below.

Positions of bridges follow the written chain, without caps; N, C: chain ends. Non-standard residues stand in square brackets, D forms with d. R8 = C=CCCCCCC[C@@](C)(N)C(=O)O; S5 = C=CCCC[C@](C)(N)C(=O)O

Holding throughout (experiment): Ki table, method not stated
One assay has as its target BCL-2 (UniProt P10415 1-217, limits assumed).
A further assay deals with T1, MCL-1 (UniProt Q07820 172-327, limits assumed).
T1 construct: also called Myeloid cell leukemia 1

A further assay addresses BCL-XL (UniProt Q07817 1-209).

Chain of BCL-2 (P10415 1-217 limits assumed): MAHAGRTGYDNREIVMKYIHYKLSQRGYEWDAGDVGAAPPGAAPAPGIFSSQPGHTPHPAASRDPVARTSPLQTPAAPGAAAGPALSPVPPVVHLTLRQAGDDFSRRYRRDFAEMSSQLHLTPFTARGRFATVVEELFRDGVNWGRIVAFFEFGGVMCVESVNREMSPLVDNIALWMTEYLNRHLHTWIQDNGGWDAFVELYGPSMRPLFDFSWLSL
Chain of BCL-XL (Q07817 1-209): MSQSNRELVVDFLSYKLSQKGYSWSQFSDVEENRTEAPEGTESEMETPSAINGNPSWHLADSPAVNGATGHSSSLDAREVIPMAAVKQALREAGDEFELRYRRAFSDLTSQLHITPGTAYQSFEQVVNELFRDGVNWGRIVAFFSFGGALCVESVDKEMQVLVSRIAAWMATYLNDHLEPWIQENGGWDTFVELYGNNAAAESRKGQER
T1 sequence (Q07820 172-327 limits assumed): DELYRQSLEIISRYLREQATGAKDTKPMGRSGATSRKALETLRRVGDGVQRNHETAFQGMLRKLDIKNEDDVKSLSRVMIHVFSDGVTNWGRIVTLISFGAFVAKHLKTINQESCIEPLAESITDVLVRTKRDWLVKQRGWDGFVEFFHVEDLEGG

B1: SEQ ID NO: 1717 (peptide)
peptide: Ac-RWIAAALR[R8]IGDAFN[S5]YYA-NH2
modifications: staple 9-16
SMILES: CC[C@H](C)[C@H](NC(=O)[C@H](Cc1c[nH]c2ccccc12)NC(=O)[C@H](CCCNC(=N)N)NC(C)=O)C(=O)N[C@@H](C)C(=O)N[C@@H](C)C(=O)N[C@@H](C)C(=O)N[C@@H](CC(C)C)C(=O)N[C@@H](CCCNC(=N)N)C(=O)N[C@]1(C)CCCCCCC=CCCC[C@@](C)(C(=O)N[C@@H](Cc2ccc(O)cc2)C(=O)N[C@@H](Cc2ccc(O)cc2)C(=O)N[C@@H](C)C(N)=O)NC(=O)[C@H](CC(N)=O)NC(=O)[C@H](Cc2ccccc2)NC(=O)[C@H](C)NC(=O)[C@H](CC(=O)O)NC(=O)CNC(=O)[C@H]([C@@H](C)CC)NC1=O
As to B1, the values for the Ki with BCL-2, with MCL-1 and with BCL-XL were 47.8 nM, 4.5 nM and 32.8 nM, respectively.

B2: SEQ ID NO: 1720 (peptide)
peptide: Ac-SWIAAALR[R8]IGDAFN[S5]YYA-NH2
modifications: staple 9-16
SMILES: CC[C@H](C)[C@H](NC(=O)[C@H](Cc1c[nH]c2ccccc12)NC(=O)[C@H](CO)NC(C)=O)C(=O)N[C@@H](C)C(=O)N[C@@H](C)C(=O)N[C@@H](C)C(=O)N[C@@H](CC(C)C)C(=O)N[C@@H](CCCNC(=N)N)C(=O)N[C@]1(C)CCCCCCC=CCCC[C@@](C)(C(=O)N[C@@H](Cc2ccc(O)cc2)C(=O)N[C@@H](Cc2ccc(O)cc2)C(=O)N[C@@H](C)C(N)=O)NC(=O)[C@H](CC(N)=O)NC(=O)[C@H](Cc2ccccc2)NC(=O)[C@H](C)NC(=O)[C@H](CC(=O)O)NC(=O)CNC(=O)[C@H]([C@@H](C)CC)NC1=O
B2: the Ki in the assay with BCL-2 is 53.2 nM; with MCL-1, 3.9 nM; with BCL-XL it was 33.4 nM.

B3: SEQ ID NO: 1719 (peptide)
peptide: Ac-HWIAAALR[R8]IGDAFN[S5]YYA-NH2
modifications: staple 9-16
SMILES: CC[C@H](C)[C@H](NC(=O)[C@H](Cc1c[nH]c2ccccc12)NC(=O)[C@H](Cc1c[nH]cn1)NC(C)=O)C(=O)N[C@@H](C)C(=O)N[C@@H](C)C(=O)N[C@@H](C)C(=O)N[C@@H](CC(C)C)C(=O)N[C@@H](CCCNC(=N)N)C(=O)N[C@]1(C)CCCCCCC=CCCC[C@@](C)(C(=O)N[C@@H](Cc2ccc(O)cc2)C(=O)N[C@@H](Cc2ccc(O)cc2)C(=O)N[C@@H](C)C(N)=O)NC(=O)[C@H](CC(N)=O)NC(=O)[C@H](Cc2ccccc2)NC(=O)[C@H](C)NC(=O)[C@H](CC(=O)O)NC(=O)CNC(=O)[C@H]([C@@H](C)CC)NC1=O
For B3, the Ki with BCL-2 was 52 nM; with MCL-1, 3.6 nM; with BCL-XL, 25.2 nM.

B4: SEQ ID NO: 1721 (peptide)
peptide: Ac-QWIAAALR[R8]IGDAFN[S5]YYA-NH2
modifications: staple 9-16
SMILES: CC[C@H](C)[C@H](NC(=O)[C@H](Cc1c[nH]c2ccccc12)NC(=O)[C@H](CCC(N)=O)NC(C)=O)C(=O)N[C@@H](C)C(=O)N[C@@H](C)C(=O)N[C@@H](C)C(=O)N[C@@H](CC(C)C)C(=O)N[C@@H](CCCNC(=N)N)C(=O)N[C@]1(C)CCCCCCC=CCCC[C@@](C)(C(=O)N[C@@H](Cc2ccc(O)cc2)C(=O)N[C@@H](Cc2ccc(O)cc2)C(=O)N[C@@H](C)C(N)=O)NC(=O)[C@H](CC(N)=O)NC(=O)[C@H](Cc2ccccc2)NC(=O)[C@H](C)NC(=O)[C@H](CC(=O)O)NC(=O)CNC(=O)[C@H]([C@@H](C)CC)NC1=O
B4: the values for the Ki with BCL-2, with MCL-1 and with BCL-XL were 64.9 nM, 4.8 nM and 35.9 nM, respectively.

B5: SEQ ID NO: 1718 (peptide)
peptide: Ac-KWIAAALR[R8]IGDAFN[S5]YYA-NH2
modifications: staple 9-16
SMILES: CC[C@H](C)[C@H](NC(=O)[C@H](Cc1c[nH]c2ccccc12)NC(=O)[C@H](CCCCN)NC(C)=O)C(=O)N[C@@H](C)C(=O)N[C@@H](C)C(=O)N[C@@H](C)C(=O)N[C@@H](CC(C)C)C(=O)N[C@@H](CCCNC(=N)N)C(=O)N[C@]1(C)CCCCCCC=CCCC[C@@](C)(C(=O)N[C@@H](Cc2ccc(O)cc2)C(=O)N[C@@H](Cc2ccc(O)cc2)C(=O)N[C@@H](C)C(N)=O)NC(=O)[C@H](CC(N)=O)NC(=O)[C@H](Cc2ccccc2)NC(=O)[C@H](C)NC(=O)[C@H](CC(=O)O)NC(=O)CNC(=O)[C@H]([C@@H](C)CC)NC1=O
For B5, the Ki worked out at 49.7 nM with BCL-2, 3.9 nM with MCL-1 and 27.2 nM with BCL-XL.

B6: SEQ ID NO: 1722 (peptide)
peptide: Ac-AWIAAALR[R8]IGDAFN[S5]YYA-NH2
modifications: staple 9-16
SMILES: CC[C@H](C)[C@H](NC(=O)[C@H](Cc1c[nH]c2ccccc12)NC(=O)[C@H](C)NC(C)=O)C(=O)N[C@@H](C)C(=O)N[C@@H](C)C(=O)N[C@@H](C)C(=O)N[C@@H](CC(C)C)C(=O)N[C@@H](CCCNC(=N)N)C(=O)N[C@]1(C)CCCCCCC=CCCC[C@@](C)(C(=O)N[C@@H](Cc2ccc(O)cc2)C(=O)N[C@@H](Cc2ccc(O)cc2)C(=O)N[C@@H](C)C(N)=O)NC(=O)[C@H](CC(N)=O)NC(=O)[C@H](Cc2ccccc2)NC(=O)[C@H](C)NC(=O)[C@H](CC(=O)O)NC(=O)CNC(=O)[C@H]([C@@H](C)CC)NC1=O
Consider B6, for which the figures for the Ki with BCL-2, in the assay with MCL-1 and with BCL-XL were 63.9 nM, 3.8 nM and 32.6 nM, respectively.

B7: SEQ ID NO: 1724 (peptide)
peptide: Ac-FWIAAALR[R8]IGDAFN[S5]YYA-NH2
modifications: staple 9-16
SMILES: CC[C@H](C)[C@H](NC(=O)[C@H](Cc1c[nH]c2ccccc12)NC(=O)[C@H](Cc1ccccc1)NC(C)=O)C(=O)N[C@@H](C)C(=O)N[C@@H](C)C(=O)N[C@@H](C)C(=O)N[C@@H](CC(C)C)C(=O)N[C@@H](CCCNC(=N)N)C(=O)N[C@]1(C)CCCCCCC=CCCC[C@@](C)(C(=O)N[C@@H](Cc2ccc(O)cc2)C(=O)N[C@@H](Cc2ccc(O)cc2)C(=O)N[C@@H](C)C(N)=O)NC(=O)[C@H](CC(N)=O)NC(=O)[C@H](Cc2ccccc2)NC(=O)[C@H](C)NC(=O)[C@H](CC(=O)O)NC(=O)CNC(=O)[C@H]([C@@H](C)CC)NC1=O
On to B7, for which the Ki with BCL-2 worked out at 76.7 nM; with MCL-1, 6.2 nM; with BCL-XL it was 33.9 nM.

B8: SEQ ID NO: 1725 (peptide)
peptide: Ac-IDIAAALR[R8]IGDAFN[S5]YYA-NH2
modifications: staple 9-16
SMILES: CC[C@H](C)[C@H](NC(C)=O)C(=O)N[C@@H](CC(=O)O)C(=O)N[C@H](C(=O)N[C@@H](C)C(=O)N[C@@H](C)C(=O)N[C@@H](C)C(=O)N[C@@H](CC(C)C)C(=O)N[C@@H](CCCNC(=N)N)C(=O)N[C@]1(C)CCCCCCC=CCCC[C@@](C)(C(=O)N[C@@H](Cc2ccc(O)cc2)C(=O)N[C@@H](Cc2ccc(O)cc2)C(=O)N[C@@H](C)C(N)=O)NC(=O)[C@H](CC(N)=O)NC(=O)[C@H](Cc2ccccc2)NC(=O)[C@H](C)NC(=O)[C@H](CC(=O)O)NC(=O)CNC(=O)[C@H]([C@@H](C)CC)NC1=O)[C@@H](C)CC
Take B8: the Ki was 41.1 nM in the assay with BCL-2, 3 nM with MCL-1 and 36.3 nM with BCL-XL.

In general, Ki refers to a measure of affinity in units of concentration, obtained from inhibition or displacement. A lower Ki goes with higher affinity.
